Source: patent US20040072754A1, “Amyloid precursor protein and APP-deprived peptides inhibit tumor growth and metastasis” (priority 2000, published 2004)
No end group written: not given here.

How the values were obtained:
[1] = system: hippocampal cell cultures; conditions: Iversen et al., 1995; cited from earlier work
[2] = system: D122 tumor cells (Lewis lung carcinoma); experiment: Lewis lung carcinoma (D122) i.v. lung metastasis model with i.p. injected Aβ peptides; format: in vivo, C57/BL mice; conditions: 20 μg/mouse/injection (Aβ96-110: 10 μg), 7 times during two weeks before and 7 times after D122 i.v. injection; examined after 21 days
Procedure: The intravenous (i.v.) model. […] D122 or B16 tumor cells were injected i.v. into Tg-APP, Tg-APP/SOD or parental mice and metastasis was evaluated after 30-37 days. In certain long-term experiments the evaluation was performed over a period of 120-140 days post injection of the tumor cells.
Aβ peptides in phosphate buffered saline (PBS) were injected i.p. into C57/BL mice 4-7 times (7-10 μg each time or 10-20 μg each time in other experiments) during two weeks preceding D122 or B16 tumor cells injection and seven times every second day following D122 or B16 tumor cells injection. Control mice were i.p. injected with PBS. Mice were sacrificed 20-21 days following injection of D122 or B16 tumor cells by injecting 20 mg/mouse Xylazine (i.p.) and lungs were weighed. Lungs were fixed, stained in Bouin's solution and metastases counted. For histology, lungs were fixed in buffered formalin and histological sections were prepared and stained with Hematoxylin-Eosin. Each experimental group included 7-12 animals, and experiments were repeated twice.
D122 tumor cells were injected i.v. to the tail of C57/BL mice. […] All together 77 μg of AP 1-42 were injected into each mouse. After 21 days tumor weight and number of metastases in the lungs were examined.
D122 tumor cells were injected intravenously to the tail of C57/BL mice. […]

Substance | toxicity to neuronal cells [1] | reduction of the number of metastases in the lungs [2] [%]
Aβ1-28: Aβ sequence fragment tested for neurotoxicity in the literature | non-toxic | –
Aβ25-35: Aβ sequence fragment tested for neurotoxicity in the literature (GSNKGAIIGLM; Amyloid-beta protein 42; UniProt P05067 696-706, looked up, fragment) | induced toxicity | –
Aβ1-38: Aβ sequence fragment tested for neurotoxicity in the literature | induced toxicity | –
Aβ1-40: Aβ sequence fragment tested for neurotoxicity in the literature | induced toxicity | –
NWCKRGRKQCKTHPH (cysteine pairing not given here) [Aβ96-10] | – | 9
